From article PMC9646525, “Cryo-EM structure of the SEA complex” (Nature, 2022) come the findings set out here.

The target of one assay is T1, Sea2 (S. cerevisiae (endogenous in yeast …, UniProt Q08281 1-1341)).
T1 construct: Sea2, S. cerevisiae, endogenous subunit of the SEAC (SEACAT, core); Native protein of the purified complex; two copies in the SEAC; source: endogenous, yeast cells expressing Sea4-TAP; in lysate and co-purified with Sea4-TAP (IgG Dynabeads, TEV elution)
T1 sequence (looked up): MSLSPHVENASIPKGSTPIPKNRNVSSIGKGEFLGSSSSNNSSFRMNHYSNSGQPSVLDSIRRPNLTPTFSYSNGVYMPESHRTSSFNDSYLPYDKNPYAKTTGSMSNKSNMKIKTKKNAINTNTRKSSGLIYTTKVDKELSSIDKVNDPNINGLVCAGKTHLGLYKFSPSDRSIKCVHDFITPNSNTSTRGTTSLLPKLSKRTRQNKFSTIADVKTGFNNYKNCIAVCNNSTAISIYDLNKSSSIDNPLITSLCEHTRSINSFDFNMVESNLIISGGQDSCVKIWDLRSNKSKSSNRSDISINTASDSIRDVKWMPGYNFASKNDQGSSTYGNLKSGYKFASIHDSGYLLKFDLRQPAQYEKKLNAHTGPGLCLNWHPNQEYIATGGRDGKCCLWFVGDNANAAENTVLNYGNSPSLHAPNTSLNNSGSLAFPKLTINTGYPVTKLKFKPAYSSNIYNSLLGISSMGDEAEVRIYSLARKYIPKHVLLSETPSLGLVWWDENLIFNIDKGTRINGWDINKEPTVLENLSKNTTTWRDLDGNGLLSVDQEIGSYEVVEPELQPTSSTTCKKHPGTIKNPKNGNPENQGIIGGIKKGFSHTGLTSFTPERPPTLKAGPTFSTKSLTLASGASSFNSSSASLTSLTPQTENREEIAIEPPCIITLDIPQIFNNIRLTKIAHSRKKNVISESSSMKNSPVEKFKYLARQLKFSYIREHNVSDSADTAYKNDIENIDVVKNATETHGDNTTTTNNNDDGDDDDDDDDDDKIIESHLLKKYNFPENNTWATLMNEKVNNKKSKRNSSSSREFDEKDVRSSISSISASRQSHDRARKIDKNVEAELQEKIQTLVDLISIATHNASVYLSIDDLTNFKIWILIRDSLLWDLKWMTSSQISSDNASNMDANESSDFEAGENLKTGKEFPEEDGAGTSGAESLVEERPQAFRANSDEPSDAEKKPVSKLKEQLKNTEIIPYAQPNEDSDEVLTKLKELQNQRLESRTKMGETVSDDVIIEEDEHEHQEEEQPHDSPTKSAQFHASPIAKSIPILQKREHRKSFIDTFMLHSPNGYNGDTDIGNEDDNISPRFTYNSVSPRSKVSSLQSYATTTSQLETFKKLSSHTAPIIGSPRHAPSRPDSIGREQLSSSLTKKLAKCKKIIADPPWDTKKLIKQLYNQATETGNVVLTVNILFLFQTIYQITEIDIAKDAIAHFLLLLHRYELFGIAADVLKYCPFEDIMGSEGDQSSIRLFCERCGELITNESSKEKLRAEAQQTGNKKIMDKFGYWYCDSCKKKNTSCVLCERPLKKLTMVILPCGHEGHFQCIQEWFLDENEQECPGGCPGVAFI
Briefly: co-IP; Sea4-TAP captured from cleared yeast lysate on IgG-coupled Dynabeads, washed, eluted with TEV protease, Coomassie-stained SDS-PAGE; 4 °C, 20 mM HEPES-NaOH pH 7.4, 300 mM NaCl, 5 mM CHAPS, 10% glycerol; wild-type, ΔNpr3, Npr2^R84A and Sea1^R943A strains. Particulars: partners not purified.

A further assay addresses T2, Sea3 (S. cerevisiae (endogenous in yeast …, UniProt Q03897 1-1148)).
T2 construct: Sea3, S. cerevisiae, endogenous subunit of the SEAC; Sea3^SIP (Sea3^Nter) lies in the wing, Sea3^SAP (Sea3^Cter) in the core; Native protein of the purified complex; two copies in the SEAC; source: endogenous, yeast cells expressing Sea4-TAP; in lysate and co-purified with Sea4-TAP (IgG Dynabeads, TEV elution)
T2 sequence (looked up): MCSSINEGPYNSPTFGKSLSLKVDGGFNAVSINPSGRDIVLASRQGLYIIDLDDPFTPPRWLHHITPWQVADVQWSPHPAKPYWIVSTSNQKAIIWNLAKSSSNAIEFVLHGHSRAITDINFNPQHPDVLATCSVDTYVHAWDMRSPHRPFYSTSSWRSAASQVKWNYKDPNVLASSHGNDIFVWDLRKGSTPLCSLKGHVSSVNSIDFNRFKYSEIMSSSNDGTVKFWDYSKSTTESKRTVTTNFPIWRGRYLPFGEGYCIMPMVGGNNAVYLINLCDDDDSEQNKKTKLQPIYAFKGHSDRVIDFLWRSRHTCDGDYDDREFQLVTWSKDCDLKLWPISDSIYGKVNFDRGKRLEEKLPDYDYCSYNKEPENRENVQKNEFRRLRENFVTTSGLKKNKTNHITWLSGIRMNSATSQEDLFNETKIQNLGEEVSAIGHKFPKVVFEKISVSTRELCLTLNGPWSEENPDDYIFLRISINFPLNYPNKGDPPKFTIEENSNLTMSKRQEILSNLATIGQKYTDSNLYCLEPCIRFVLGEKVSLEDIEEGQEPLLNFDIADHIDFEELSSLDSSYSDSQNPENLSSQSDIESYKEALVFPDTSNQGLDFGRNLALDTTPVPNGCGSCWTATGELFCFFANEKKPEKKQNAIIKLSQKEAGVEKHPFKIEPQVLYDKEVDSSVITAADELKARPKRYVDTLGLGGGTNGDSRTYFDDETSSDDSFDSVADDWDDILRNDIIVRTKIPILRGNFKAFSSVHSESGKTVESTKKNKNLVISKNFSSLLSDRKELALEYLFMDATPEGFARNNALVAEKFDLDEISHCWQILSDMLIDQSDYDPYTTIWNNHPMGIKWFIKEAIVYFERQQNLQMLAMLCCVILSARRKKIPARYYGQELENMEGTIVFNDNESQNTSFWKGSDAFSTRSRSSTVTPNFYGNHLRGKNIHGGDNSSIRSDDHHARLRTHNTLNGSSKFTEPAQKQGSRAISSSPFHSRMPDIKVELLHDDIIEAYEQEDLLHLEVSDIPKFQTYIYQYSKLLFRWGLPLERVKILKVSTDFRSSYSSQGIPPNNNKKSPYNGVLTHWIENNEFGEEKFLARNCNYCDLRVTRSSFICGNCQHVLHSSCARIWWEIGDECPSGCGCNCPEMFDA
The assay is described as above. Particulars: partners not purified.

B1: Sea4-TAP (natural protein, UniProt P38164 1-1038, looked up)
chain: MGLIKKVTHWSYDNLIDYLSVNPTRDEVTHYKVDPENESDESIIKLHTVKDFGSITCLDYSESEIGMIGVGEKNGYLRIFNISGQNSSSPASHAPVGLNANNETSMTNASGGKAAQAENIVGSVSNLKDTQGYPVSETNYDIRVRAKKQRCINSLGINTNGLIAMGLDRNKHDSSLQIWDMNYHDDSHETINPMFSYCTNESIVSLKFLNDTSVLAASTKFLKEIDVRSPNPIYQHPTRLTYDIKLNPFNDWQFSTYGDDGTLAIWDRRKLSDQASLGDLNVASPLLTFEKLVGSGAASRKYMNSCFRWSCVRNNEFATLHRGDTIKRWRLGYYCDSNRDIAADDDNEMNIENLFVSSVHDTNTMYDRVATFDYIPRSNNGTSLICMRQSGTIYRMPISEVCSKAILNNRNSLLLSNFENTEIDEIRVNNEHEKSNLENVKTILKNLSFEDLDVSEDYFPSGHDEPNNEIEYSELSEEENEGSNDVLDSKRGFELFWKPEKLLEKDISVIMRTRASLGYGLDPMNTVEMIDSSKNLQNNAYIRNTWRWIAIAKASVDDGTMVSGDLDLGYEGVIGIWNGINGISNQDRYRQETILSDKQLNKEMEKIIKLRRKNRDRNSPIANAAGSPKYVQRRLCLIISGWDLSRSDYEDKYNIIMKNGHYEKAAAWAVFFGDIPKAVEILGSAKKERLRLIATAIAGYLAYKDLPGNNAWRQQCRKMSSELDDPYLRVIFAFIADNDWWDILYEPAISLRERLGVALRFLNDTDLTTFLDRTSSTVIENGELEGLILTGITPNGIDLLQSYVNKTSDVQSAALISIFGSPRYFRDQRVDEWIQTYRDMLKSWELFSMRARFDVLRSKLSRTKTGVLTADIKPRQIYIQCQNCKQNINTPRTSSPSSAVSTSAGNYKNGEAYRRNNADYKKFNTGSSEAQAADEKPRHKYCCPHCGSSFPRCAICLMPLGTSNLPFVINGTQSRDPMQTEDSQDGANRELVSRKLKLNEWFSFCLSCNHGMHAGHAEEWFDRHNVCPTPGCTCQCNK
notes: Sea4, S. cerevisiae, endogenous subunit of the SEAC (SEACAT, core), TAP-tagged; Captured by the TAP tag on IgG beads; the complex was released with TEV protease before SDS-PAGE and cryo-EM; Written 'Sea4-TAP'; Four copies in the SEAC; source: endogenous, yeast cells expressing Sea4-TAP; in lysate, purified on IgG-coupled Dynabeads and eluted with TEV protease
With B1, the binding result in the assay with Sea2 and with Sea3 was “binds” throughout.
